Reference: patent US12371675B2, “Process and microorganism for synthesis of adipic acid from carboxylic acids” (THE GOVERNING COUNCIL OF THE UNIVERSITY OF TORONTO, priority 2015, dated 2025)

Tests used:
O=C(O)CCCCCO = assay: purified protein, by the assay type; details: pH 7.5
O=C(O)CCCO = assay: purified protein, by the assay type; details: other: ATP/NADPH dependent reduction; pH 7.5
CCCC=O [1] = assay: AR kinetics, aldehyde reduction followed by NAD(P)H oxidation; format: biochemical, Pseudomonas aeruginosa; details: other: butyraldehyde, pH 7.5
Text: (§1) 28 aldehyde reductases from different bacteria were cloned and overexpressed in E. coli. Enzymes purified using affinity chromatography on Ni-NTA resin were screened for reductase activity with adipaldehyde and butyraldehyde in presence of both NADPH and NADH (Table 5). Butyraldehyde was used as a substrate substitute for 4-oxo-butanal, which is not commercially available. Reactions were followed spectrophotometrically, by cofactor oxidation at 340 nm.
(§2) Enzyme activity of purified ARs was measured spectrophotometrically in 96-well plates Reaction mixtures contained 100 mM HEPES buffer (pH 7.5), 0.4 mM NADH/NADPH, 10 mM adipaldehyde or butylaldehyde, and proteins (10 μg for adipaldehyde screen, 2 μg for butyraldehyde screen) in a final volume of 200 μL Reaction mixture for adipaldehyde screening contained 1.8% DMSO. Enzyme reactions were monitored by following the decrease in absorbance at 340 nm (ε340 nm=6,220/M·cm) due to oxidation of NAD(P)H to NAD(P)+.
(§3) ARs RHA1_ro05279, PA1146, SC00229, PP_3370 were characterised for saturation with adipaldehyde, PP_3370, PSPTO_2097, RHA1_ro05279, SC00229, TM_0111, PA1146 were characterised for butyraldehyde saturation (Table 10). […] For both substrates maximal kcat/Km with minimal Km values was shown by AR PP 3370 from Pseudomonas putida.

O=CCCCCC=O = assay: as above; format: biochemical, Pseudomonas aeruginosa; details: other: adipaldehyde; cofactor NADH; 1,8% DMSO; pH 7.5
Text: as §1, §2, §3

CCCC=O [2] = assay: as above; format: biochemical, Pseudomonas syringae; details: other: butyraldehyde; cofactor NADPH; pH 7.5
Text: as §1, §2, §3

## Mycobacterium paratuberculosis carboxylate reductase MAP_1040c, SEQ ID NO: 38 (Mycobacterium avium subsp. paratuberculosis MAP4)
O=C(O)CCCCCO
  Km: 70.1 ± 7.04 mM

## Mycobacterium smegmatis carboxylate reductase MSMEG_2956, SEQ ID NO: 70 (Mycolicibacterium smegmatis MC2 155)
O=C(O)CCCO
  Km: 69.57 ± 4.16 mM
  kcat: 0.513 ± 0.017 s⁻¹
  kcat/Km: 7.37 ± 0.24 M⁻¹ s⁻¹

## Mycobacterium smegmatis carboxylate reductase MSMEG_5739, SEQ ID NO: 37 (Mycolicibacterium smegmatis MC2 155)
O=C(O)CCCO
  Km: 37.84 ± 2.39 mM
  kcat: 0.51 ± 0.017 s⁻¹
  kcat/Km: 13.5 ± 0.45 M⁻¹ s⁻¹

## Mycobacterium smegmatis carboxylate reductase MSMEI_5586, SEQ ID NO: 35 (Mycolicibacterium smegmatis MC2 155)
O=C(O)CCCO
  Km: 19.63 ± 4.88 mM
  kcat: 0.152 ± 0.013 s⁻¹
  kcat/Km: 7.74 ± 0.66 M⁻¹ s⁻¹

## Pseudomonas aeruginosa aldehyde reductase PA1146, SEQ ID NO: 43 (Pseudomonas aeruginosa PAO1)
CCCC=O [1]; cofactor NADH
  Km: 15.6 ± 5.94 mM
  kcat: 9.01 ± 01.9 s⁻¹
  kcat/Km: (5.76 ± 1.22) × ×10^2 M^−1 · s^−1
CCCC=O [1]; cofactor NADPH
  Km: 3.37 ± 0.9 mM
  kcat: 0.84 ± 0.08 s⁻¹
  kcat/Km: (2.49 ± 0.24) × ×10^2 M^−1 · s^−1
O=CCCCCC=O
  Km: 9.0 ± 1.99 mM
  kcat: 5.45 ± 0.56 s⁻¹
  kcat/Km: (6.02 ± 0.06) × ×10^2 M^−1 · s^−1

## Pseudomonas syringae aldehyde reductase PSPTO_2097, SEQ ID NO: 46 (Pseudomonas syringae pv. tomato str. DC3000)
CCCC=O [2]
  Km: 10.3 ± 1.06 mM
  kcat: 12.2 ± 0.63 s⁻¹
  kcat/Km: (1.18 ± 0.06) × ×10^3 M^−1 · s^−1
